From US20140341917A1 (Merck KGaA, published 2014) come the findings set out here.

Numbering of substitutions follows the chain as printed. Numbers in names are those of the source.

The target of test [1] is T1, human PD-L1 (human, UniProt Q9NZQ7 19-238, limits assumed).
T1 construct: Protein used in the Biacore assays of 3.1
As to the kind of experiment: Biacore kinetic profile.

Test [2] deals with T1, human PD-L1. As to the kind of experiment: Biacore; relative to A09-188-1.
Test [3] has as its target T2, mouse PD-L1 (mouse, UniProt Q9EP73 19-238, limits assumed).
T2 construct: Biacore protein
As to the kind of experiment: ELISA, later Biacore and FACS on PD-L1 expressing cells (hit selection, IgG format). Background: In an ELISA, binding on a coated surface is turned into a signal by an enzyme label.

Test [4] has as its target T3, hu-PDL-2-huFc (human, UniProt Q9BQ51 20-219, limits assumed).
T3 construct: not shown: human Fc (huFc)
T3 sequence (looked up): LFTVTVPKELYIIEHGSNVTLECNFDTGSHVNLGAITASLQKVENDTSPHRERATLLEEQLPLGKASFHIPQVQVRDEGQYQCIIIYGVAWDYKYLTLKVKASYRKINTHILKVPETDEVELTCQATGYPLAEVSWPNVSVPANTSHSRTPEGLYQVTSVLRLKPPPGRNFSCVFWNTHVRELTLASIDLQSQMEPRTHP
Put plainly: Biacore. (Surface plasmon resonance follows binding to a sensor surface in real time, without labels.)

Test [5] concerns the target T4, hu-B7.1-huFc (human, UniProt P33681 35-242, limits assumed).
T4 construct: not shown: human Fc (huFc)
T4 sequence (looked up): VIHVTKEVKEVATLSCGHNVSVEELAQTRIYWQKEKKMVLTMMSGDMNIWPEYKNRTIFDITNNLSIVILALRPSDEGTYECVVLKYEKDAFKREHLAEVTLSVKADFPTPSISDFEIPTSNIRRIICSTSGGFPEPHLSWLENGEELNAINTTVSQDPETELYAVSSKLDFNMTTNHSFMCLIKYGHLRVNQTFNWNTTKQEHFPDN
As to the kind of experiment: Biacore.

The target of test [6] is T5, hu-B7.2-huFc (human, UniProt P42081 26-245, limits assumed).
T5 construct: not shown: human Fc (huFc)
T5 sequence (looked up): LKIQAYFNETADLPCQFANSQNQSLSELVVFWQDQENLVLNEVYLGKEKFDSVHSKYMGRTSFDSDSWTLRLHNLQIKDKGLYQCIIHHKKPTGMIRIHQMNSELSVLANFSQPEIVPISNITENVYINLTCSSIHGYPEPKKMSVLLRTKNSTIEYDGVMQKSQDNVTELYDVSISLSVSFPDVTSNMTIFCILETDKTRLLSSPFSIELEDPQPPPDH
As to the kind of experiment: Biacore.

Test [7] has as its target T6, huB7-H2-huFc (human, UniProt O75144 19-258, limits assumed).
T6 construct: not shown: human Fc (huFc)
T6 sequence (looked up): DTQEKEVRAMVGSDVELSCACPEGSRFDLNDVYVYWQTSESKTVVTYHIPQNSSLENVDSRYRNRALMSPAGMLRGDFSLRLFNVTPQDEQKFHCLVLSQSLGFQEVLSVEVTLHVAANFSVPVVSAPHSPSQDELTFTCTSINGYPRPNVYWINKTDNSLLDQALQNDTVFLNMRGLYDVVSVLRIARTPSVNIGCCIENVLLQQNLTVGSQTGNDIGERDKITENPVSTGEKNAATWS
Put plainly: Biacore.

Test [8] addresses T7, huB7-H3-huFc (human, UniProt Q5ZPR3-2 29-245, limits assumed).
T7 construct: not shown: human Fc (huFc)
T7 sequence (looked up): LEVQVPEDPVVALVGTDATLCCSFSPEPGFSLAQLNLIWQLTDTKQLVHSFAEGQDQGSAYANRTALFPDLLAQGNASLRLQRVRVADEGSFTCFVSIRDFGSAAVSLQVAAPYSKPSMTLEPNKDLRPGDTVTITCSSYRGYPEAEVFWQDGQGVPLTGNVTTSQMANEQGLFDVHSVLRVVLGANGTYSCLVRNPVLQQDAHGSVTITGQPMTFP
Put plainly: Biacore.

The target in test [9] is T8, cynomolgus monkey PD-L1 expressed on the HEK cell surface (cynomolgus monkey, UniProt G7PSE7 19-290).
T8 construct: The sentence prints only 'cynomolgus monkey expressed on the HEK cell surface'
As to the kind of experiment: direct FACS binding, HEK cells expressing cynomolgus monkey PD-L1. Background: A flow cytometer gives signals particle by particle.

T1 sequence (Q9NZQ7 19-238 limits assumed): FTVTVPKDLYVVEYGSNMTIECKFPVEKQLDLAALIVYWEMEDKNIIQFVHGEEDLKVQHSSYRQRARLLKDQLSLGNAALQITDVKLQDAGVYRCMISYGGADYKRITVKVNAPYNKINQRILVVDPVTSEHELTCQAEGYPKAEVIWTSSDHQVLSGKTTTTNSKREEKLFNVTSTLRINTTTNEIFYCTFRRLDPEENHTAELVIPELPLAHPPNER
T2 sequence (Q9EP73 19-238 limits assumed): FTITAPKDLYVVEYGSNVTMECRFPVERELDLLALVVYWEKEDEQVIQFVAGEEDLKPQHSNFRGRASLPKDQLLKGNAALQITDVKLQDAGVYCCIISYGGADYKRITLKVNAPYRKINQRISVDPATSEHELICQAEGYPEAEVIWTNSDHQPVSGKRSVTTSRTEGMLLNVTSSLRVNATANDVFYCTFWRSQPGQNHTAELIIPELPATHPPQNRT
T8 sequence (G7PSE7 entry or part of it limits assumed): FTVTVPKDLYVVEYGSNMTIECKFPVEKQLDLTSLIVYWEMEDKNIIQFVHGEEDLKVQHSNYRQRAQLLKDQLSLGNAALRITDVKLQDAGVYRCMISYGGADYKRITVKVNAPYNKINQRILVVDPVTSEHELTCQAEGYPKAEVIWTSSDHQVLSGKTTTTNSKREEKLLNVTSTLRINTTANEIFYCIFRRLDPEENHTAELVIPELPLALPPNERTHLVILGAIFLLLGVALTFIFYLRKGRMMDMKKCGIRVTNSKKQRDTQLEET

B1: A09-188-1 (antibody, human IgG1, lambda, V domains shown)
VH: EVQLLESGGGLVQPGGSLRLSCAASGFTFSMYMMMWVRQAPGKGLEWVSSIYPSGGITFYADSVKGRFTISRDNSKNTLYLQMNSLRAEDTAIYYCARIKLGTVTTVDYWGQGTLVTVSS
VL: QSALTQPASVSGSPGQSITISCTGTSSDVGAYNYVSWYQQHPGKAPKLMIYDVSNRPSGVSNRFSGSKSGNTASLTISGLQAEDEADYYCSSYTSSSTRVFGTGTKVTVLG
notes: Parent antibody, lambda light chain, expressed as IgG
B1: in test [1], the Kd (usually a measure of binding affinity in units of concentration) stood at 5.29 nM and the t½ (usually the time in which the quantity being followed falls by half) turned out to be 13.2 min. Besides, the “Relative KD” value in test [2] came out at 1. For the same molecule, the binding result in test [3] was “binds”.

B2: A09-246-2 (antibody, human IgG1, lambda, V domains shown)
VH: B1 VH with M31S, M33I, S63T, I93V
VL: B1 VL with A31G
notes: lambda light chain
In the case of B2, the binding result in test [4], in [5], in [6], in test [7] and in test [8] was “no binding” each time. Besides, in test [9], it took 0.94 nM to reach a half-maximal effect (EC50).

B3: A09-248-2 (antibody, human IgG1, lambda, V domains shown)
VH: B1 VH with M31I, M33I, M35F, S63T, I93V
VL: B1 VL with A31G
notes: also called VL-A31G; VH-M31I, M33I, M35F, S63T, I93V
Consider B3, for which, in test [1], the Kd is 0.1 nM and the t½ stood at 436 min. Further, the “Relative KD” value in test [2] was found to be 0.02.

B4: A09-247-2 (antibody, human IgG1, lambda, V domains shown)
VH: B1 VH with M31S, M33L, S63T, I93V
VL: B1 VL with A31G
notes: also called VL-A31G; VH-M31S, M33L, S63T, I93V
In test [1], B4 gave a Kd of 0.76 nM and a t½ of 57.8 min. Also, the “Relative KD” value in [2] amounted to 0.16.
